Laboratory results published in paper PMC4805485.

How the values were obtained:
[1] = biological target: diubiquitin G76C linked via K63, conjugated to BODIPY TMR C5-maleimide (UniProt P0CG47); assay: fluorescence polarisation
[2] = biological target: K63-linked diubiquitin (UniProt P0CG47); assay: SEC

Row | fold reduction in binding affinity compared to the MyUb domain alone [1] [fold] | stoichiometry N (MyUb per diubiquitin) [2] | Substance
1 | 4 |  | myosin VI 1050-1131 (from UniProt Q9UM54 1050-1131) (domain or fragment)
2 |  | 1 | MyUb (G1080-R1131) (from UniProt Q9UM54 1080-1131) (domain or fragment)
